Results on 2 substances are retold here after publication doi:10.1101/2020.07.09.196626.

For test [1], the target named is V5 epitope-tagged soluble ZIKV E, covalently stabilised dimer carrying A264C (sE-cvD) (Zika virus (strain ArD158095)). The experiment in a line: non-reducing SDS-PAGE.
Test [2] has as its target ZIKV full-length E protein carrying A264C (covalent dimer), in virus-like particles (VLP-cvD) (Zika virus (strain PE243)). The test can be described thus: non-reducing SDS-PAGE with western blot.

The substance “V5 epitope-tagged soluble ZIKV E, covalently stabilised dimer carrying A264C (sE-cvD) (domain or fragment)” gave a stoichiometry N in test [1] of 2.

In the case of “ZIKV full-length E protein carrying A264C (covalent dimer), in virus-like particles (VLP-cvD) (natural protein)”, in test [2], the stoichiometry N is 2.
